Test results taken from patent US20090191571A1.
Where two headings read alike, the source gives them in different places.

Key:
[1] = biological target: T1, PrP^Sc (pathogenic mouse prion protein, RML, in infected Balb-c mouse brain homogenate) (mouse), P04925
[2] = biological target: T1, PrP^Sc (pathogenic mouse prion protein, …); remark: listed apart in the source

GGGAGAAAAGAVVGGLGG (modifications not checked) [Peptide reagent SEQ ID NO:56]
ELISA A405nm [1]: 0.313 A405nm

KKKAGAAAAGAVVGGLGG (modifications not checked) [Peptide reagent SEQ ID NO:65]
ELISA A405nm [1]: 0.635 A405nm

GGGKKKKKKKK (modifications not checked) [Peptide reagent SEQ ID NO:85]
ELISA A405nm [1]: 0.53 A405nm

GGGKARPKPGG (modifications not checked) [Peptide reagent SEQ ID NO:105]
ELISA A405nm [2]: 0.256 A405nm

GGGNKPSKPK (modifications not checked) [Peptide reagent SEQ ID NO:79]
ELISA A405nm [1]: 0.24 A405nm

PHGGGWGQ (modifications not checked) [Peptide reagent SEQ ID NO:71]
ELISA A405nm [1]: 0.263 A405nm

GGGKKRPKPGGGKKRPKPGG (modifications not checked) [Peptide reagent SEQ ID NO:72]
ELISA A405nm [1]: 0.522 A405nm

GGGKPSKPK (modifications not checked) [Peptide reagent SEQ ID NO:80]
ELISA A405nm [1]: 0.225 A405nm

GGGGPKRKGPK (modifications not checked) [Peptide reagent SEQ ID NO:73]
ELISA A405nm [1]: 1.06 A405nm

GGGAKRPKPGG (modifications not checked) [Peptide reagent SEQ ID NO:104]
ELISA A405nm [2]: 0.273 A405nm

GGWGQGGGTHNQWNKPSKPKTN (modifications not checked) [Peptide reagent SEQ ID NO:53]
ELISA A405nm [1]: 0.254 A405nm

GGGKKRPAPGG (modifications not checked) [Peptide reagent SEQ ID NO:107]
ELISA A405nm [2]: 0.578 A405nm

GGTHNQWNKPSKPKTN (modifications not checked) [Peptide reagent SEQ ID NO:54]
ELISA A405nm [1]: 0.253 A405nm

GGGKKRAKAGG (modifications not checked) [Peptide reagent SEQ ID NO:98]
ELISA A405nm [1]: 1.46 A405nm

GGGKKAPKPGG (modifications not checked) [Peptide reagent SEQ ID NO:106]
ELISA A405nm [2]: 0.268 A405nm
